This note sets out measurements from paper PMC6726571.

The target in data set [1] is T1, SRSF3 (SRp20), recombinant (UniProt P84103 1-164).
T1 sequence: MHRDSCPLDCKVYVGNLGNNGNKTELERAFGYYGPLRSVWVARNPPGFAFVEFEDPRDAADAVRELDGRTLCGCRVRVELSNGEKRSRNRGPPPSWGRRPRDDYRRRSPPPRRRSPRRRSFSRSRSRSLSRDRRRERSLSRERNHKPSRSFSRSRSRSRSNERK
Nature of the data set: pull-down.

Data set [2] addresses T1, SRSF3 (SRp20), recombinant. Nature of the data set: pull-down. This is another data set of the same source.

Like-named read-outs stand apart in the source and are kept apart here.

B1: CPEB2 exon 4 WT RNA, biotinylated (ssRNA)
RNA: GUGAGAUCUAGUUUGCAGUUGCCAGCUUGGGGCUCAGAUUCACUCCAAGAUAGUUGGUGCACUGCAGCCGGAACAUCCAGAAUAGACCAG
As to B1, the binding result in data set [1] was “binds”.

B2: CPEB2 exon 4 MUT RNA (CAUCC to GAGUC), biotinylated (ssRNA)
RNA: GUGAGAUCUAGUUUGCAGUUGCCAGCUUGGGGCUCAGAUUCACUCCAAGAUAGUUGGUGCACUGCAGCCGGAAGAGUCAGAAUAGACCAG
Regarding B2, the binding result in data set [2] is reported as “no binding”.
